Changes are numbered by the printed parent chain. Names and notes keep the numbering of the source. No end group written: not given here.
T1: Pep-3, NH2-LEEKKGNYVVTDHG-OH (human)
T1 construct: Free peptide used in Biacore and KinExA (MW 1590 Da)
T1 peptide: H-LEEKKGNYVVTDHG-OH

T2: EGFRvIII peptide-OVA (PEP3 14-mer conjugated to ovalbumin) (human, also: conjugated to OVA, chemistry not given here)
T2 construct: also called VIII-pep-OVA; muEGFr
T2 peptide: LEEKKGNYVVTDHC

B1: AB-EGFRvIII-XG1K-13.1.2 (antibody, V domains shown)
VH: QVQLVESGGGVVQPGRSLRLSCAASGFTFSSYGMHWVRQAPGKGLEWVAVIWYDGSNKYYVDSVKGRFTISRDNSKNTLYLQMNSLRAEDTAVYYCARDGWQQLAPFDYWGQGTLVTVSS
VL: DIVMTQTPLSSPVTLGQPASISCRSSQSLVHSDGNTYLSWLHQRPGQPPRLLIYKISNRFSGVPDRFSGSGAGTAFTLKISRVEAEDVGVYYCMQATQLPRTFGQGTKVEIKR
B2: 13.1.2 variant L99N-4.1 (antibody, V domains shown)
VH: B1 VH
VL: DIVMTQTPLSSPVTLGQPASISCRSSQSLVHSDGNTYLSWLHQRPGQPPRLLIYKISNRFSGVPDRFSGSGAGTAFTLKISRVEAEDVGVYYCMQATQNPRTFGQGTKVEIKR
notes: also called Leu99Asn; 99Asn
B3: 13.1.2 variant L99T-5.3 (antibody, V domains shown)
VH: B1 VH
VL: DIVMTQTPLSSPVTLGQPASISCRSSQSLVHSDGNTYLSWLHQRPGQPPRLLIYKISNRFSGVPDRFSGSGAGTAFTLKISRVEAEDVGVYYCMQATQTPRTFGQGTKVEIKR
notes: also called Leu99Thr; 99Thr
B4: SC-EGFRvIII-XG1-139 (antibody, V domains shown)
VH: EVQVLESGGGLVQPGGSLRLSCAASGFTFSSYAMSWVRQAPGKGLEWVSAISGSGGSTNYADSVKGRFTISRDNSKNTLYLQMNSLRAEDTAVYYCAGSSGWSEYWGQGTLVTVSS
VL: DIQMTQSPSSLSASVGDRVTITCRASQGIRNNLAWYQQKPGKAPKRLIYAASNLQSGVPSRFTGSGSGTEFTLIVSSLQPEDFATYYCLQHHSYPLTSGGGTKVEIK
notes: also called SC139; sc139
B5: SC-EGFRvIII-XG1-131 (antibody, V domains shown)
VH: QVQLVESGGGVVQSGRSLRLSCAASGFTFRNYGMHWVRQAPGKGLEWVAVIWYDGSDKYYADSVRGRFTISRDNSKNTLYLQMNSLRAEDTAVYYCARDGYDILTGNPRDFDYWGQGTLVTVSS
VL: DTVMTQTPLSSHVTLGQPASISCRSSQSLVHSDGNTYLSWLQQRPGQPPRLLIYRISRRFSGVPDRFSGSGAGTDFTLEISRVEAEDVGVYYCMQSTHVPWTFGQGTKVEIK
notes: also called SC131; sc131
B6: mAb 131 variant, light chain V99F (antibody, V domains shown)
VH: B5 VH
VL: B5 VL with V99F
notes: also called V99 changed to F

Tests used:
[1] = target: T1, Pep-3, NH2-LEEKKGNYVVTDHG-OH; test: KinExA, pep3; KinExA (solution equilibrium), pep3; not Biacore
[2] = target: T3, EGFRvIII, full length, expressed by transfected cells (NR6 M, H1477, 300.19/EGFRvIII) (human, UniProt P00533 298-1210); test: FACS on NR6 M cells, antibody at 0.25 µg/ml with SS Alexa anti-human IgG Fab, 37° C. for 1 hr, no glutathione (total cell-associated fluorescence)
T3 construct: Also used here for Western blots of H1477 lysate; also called native EGFRvIII; mutant EGFR
Procedure: XenoMax derived IgG1 recombinant antibodies were expressed, purified and quantitated as described previously. Antibodies were further assayed for their ability to internalize the EGFRvIII receptor in NR6 M cells. […] The cells were washed with cold 10% FCS in PBS and secondary antibody (SS Alexa antihuman IgG Fab) at 3 μg/ml Fab was added and incubated for 7 mins on ice. The cells were washed with cold 10% FCS in PBS once and then resuspended in cold media. Next, two sets of the triplicate were incubated at 37° C. and the remaining set was incubated at 4° C. for 1 hr. After that the cells incubated at 4° C. and one set of the cells incubated at 37° C. were treated with glutathione (as previously mentioned) for 1 hr on ice. Then the cells were washed and resuspended in 100 μl of cold 1% FCS in PBS and analyzed by FACS. The % internalization was calculated from the geometric mean obtained from the FACS analysis [(mean at 37° C. with glutathione—mean at 4° C. with glutathione)/(mean at 37° C. without glutathione—mean at 4 C with glutathione)].

[3] = target: T1, Pep-3, NH2-LEEKKGNYVVTDHG-OH; test: Biacore 2000 SPR, mAb immobilised, pep-3 analyte; 95% confidence interval in parentheses
Description: (§1) Two CM5 sensor chips were used in total to immobilize both mAbs. […] Biacore 2000 optical biosensors were used for all studies.
(§2) Next, pep-3 was flowed across the mAb immobilized biosensor surfaces. […] Blank injections were run every sixth sample throughout the injection series for double referencing purposes.

[4] = target: T1, Pep-3, NH2-LEEKKGNYVVTDHG-OH; test: Biacore SPR, mAb immobilised, Pep-3 analyte (single experiment of Example 25)
[5] = target: T4, wild type EGFR expressed by cells (NR6 Wt, A431, A549, H80, SF-539, A498, SKRC-52) (human, UniProt P00533 25-1210); test: FACS on H80 glioblastoma cells (wild type EGFR only), 30 min on ice, PE goat anti-human IgG; filled histogram = irrelevant IgG
T4 construct: Also used here for Western blots of cell lysates; also called wtEGFR; Wt receptor
Procedure: The specificity of the purified antibodies was ascertained by performing FACS analysis on a panel of cell lines. H80, a human glioblastoma line, and H1477 (H80-EGFRvIII) that expresses high levels of EGFRvIII, A431, a human epidemoid carcinoma line, and A549, a human lung carcinoma cell line were used as the cell lines. All cell lines were from Dr. Bigner except A431 and A549, which were from ATCC (Rockville, Md., U.S.A.). Cells were incubated on ice with 10 μg/ml of the respective antibody for 30 min., washed in FACS buffer and subsequently incubated with PE-conjugated goat anti-human IgG from Jackson ImmunoResearch (West Grove, Pa., U.S.A.).

[6] = target: T3, EGFRvIII, full length, expressed by …; test: cell-based or functional assay
[7] = target: T1, Pep-3, NH2-LEEKKGNYVVTDHG-OH; test: Biacore 2000 SPR, mAb immobilised, pep-3 analyte; 95% confidence interval in parentheses
Description: as §1, §2

[8] = target: T1, Pep-3, NH2-LEEKKGNYVVTDHG-OH; test: Biacore 2000 SPR, steady-state (equilibrium) binding model, pep-3 analyte
Description: The first step in these examples involved the immobilization of 5,600 resonance units (RU) to 8,000 RU of each mAb tested to one flow cell (Fc) of a CM5 sensor chip using standard EDC/NHS coupling chemistry. […] Three CM5 sensor chips were used in total to immobilize all mutant mAbs with a unique mAb immobilized to each flow cell. […] Biacore 2000 optical biosensors were used for all studies.

[9] = target: T1, Pep-3, NH2-LEEKKGNYVVTDHG-OH; test: Biacore 2000 SPR, mAb immobilised, pep-3 analyte (range between runs)
Description: as §1, §2

[10] = target: T5, EGFRvIII-rabbit Fc fusion protein (human; rabbit, UniProt P00533 298-645); test: ELISA, minilipofection supernatant titrated 1:2 on EGFRvIII-Rab Ig Fc fusion protein (1.5 ug/ml)
T5 construct: made in 293F cells; also called EGFRvIII-RbFc; EGFRvIII-Rab Ig Fc fusion protein; not shown: rabbit IgG Hinge-CH2-CH3 (721 bp fragment)
Procedure: The secretion ELISA tests were performed as follows. […] The plates were washed five times with dH₂O. Recombinant antibodies were titrated 1:2 for 7 wells from the undiluted minilipofection supernatant. The plates were washed five times with dH₂O. A goat anti-human IgG Fc-specific HRP-conjugated antibody was added at a final concentration of 1 μg/mL for 1 hour at RT for the secretion plates and binding plates detected with 1 μg/ml Rb anti Hu Fc for 1 hour at room temperature. The plates were washed five times with dH₂O. The plates were developed with the addition of TMB for 30 minutes and the ELISA was stopped by the addition of 1 M phosphoric acid. Each ELISA plate was analyzed to determine the optical density of each well at 450 nm.

[11] = target: T1, Pep-3, NH2-LEEKKGNYVVTDHG-OH; test: Biacore 2000 SPR, mAb immobilised, pep-3 analyte, 23 C
Procedure: Standard EDC/NHS and carbohydrate coupling was used to covalently immobilize mAbs to a CM5 sensor chip. To minimize mass transport and crowding mAbs were immobilized at levels that gave a maximum antigen binding response (Rₘₐₓ) of no more than 50-100 RU. A reference flow cell on each chip was activated and blocked with no mAb immobilization to serve as a control.
All Biacore kinetic experiments were conducted at 23° C. […] Antigen samples were randomly injected over the biosensor surface in triplicate at 100 μL/min. Several buffer blanks were injected intermittently over the course of an experiment for double referencing. Each pep-3 concentration and blank were injected for 90 seconds. Dissociation was followed for 13 to 180 minutes.
All Biacore sensorgrams were processed using Scrubber software (Version 1.1f, BioLogic Software, Australia). Sensorgrams were first zeroed on the y-axis and then x-aligned at the beginning of the injection. Bulk refractive index changes were removed by subtracting the reference flow cell responses. The average response of all blank injections was subtracted from all analyte and blank sensorgrams to remove systematic artifacts between the experimental and reference flow cells. CLAMP biosensor data analysis software (Version 3.40, BioLogic Software, Australia) was used to determine kₐ and kd from the processed data sets. Data from all flow cells were globally fit to a 1:1 bimolecular binding model that included a mass transport term. […] The KD was calculated from the quotient kd/kₐ.

[12] = target: T4, wild type EGFR expressed by cells (NR6 …); test: FACS, 10 ug/ml antibody, H80, A431 and A549 cells
[13] = target: T2, EGFRvIII peptide-OVA (PEP3 14-mer …); test: XenoMax screening
[14] = target: T1, Pep-3, NH2-LEEKKGNYVVTDHG-OH; test: KinExA, pep3
Procedure: All KinExA experiments were conducted at room temperature (˜23° C.). For all equilibrium experiments, antigen was serially diluted into solutions having a constant mAb binding site concentration. For the first 10 titration points the dilutions were 2-fold and the 11th and 12th serial dilutions were 10-fold. The sample flow rate for all experiments was 0.25 mL/min and the labeling antibody flow rate was 0.5 mL/min. […] A sample volume of 250 μL was analyzed for the antibody-controlled experiment. Two or three replicates of each sample were measured for all equilibrium experiments. The equilibrium titration data were fit in a dual curve analysis to a 1:1 binding model using KinExA software (Version 2.4, Sapidyne Instruments).

[15] = target: EGFrVIII antigen (ELISA antigen of Examples 15, 17 and 21; form not stated) (human, UniProt P00533 298-645, limits assumed); test: binding of variant antibody to EGFRvIII antigen

Binder | FACS Geometric mean (without glutathione, 37° C.) [2] [geometric mean] | % internalization [6] [%] | FACS Geometric mean, With glutathione 4° C. [6] [geometric mean] | FACS Geometric mean, With glutathione 37° C. [6] [geometric mean] | Kd [7] [nM] | koff [7] [s⁻¹] | kon [7] [M⁻¹ s⁻¹] | binding result [13] | also measured
B1 | 22.1 | 82.5 | 5.38 | 19.2 | 75 | 0.016 | 210000 | – | Kd [1]: 0.025 nM; Kd [3]: 75 nM; koff [3]: 0.016 s⁻¹; kon [3]: 210000 M⁻¹ s⁻¹; Kd [4]: 67 nM; binding result [5]: no binding (tested: 10 µg/ml)
B2 | – | – | – | – | – | – | – | – | Kd [8]: 1400 nM
B3 | – | – | – | – | 60 | 0.013 | 216000 | – | Kd [9]: 54 to 70 nM
B4 | 22.6 | 80.8 | 4.88 | 19.2 | – | – | – | binds | Titer, antigen binding [10]: > 64 reciprocal dilution; Kd [11]: 290 nM; koff [11]: 0.00298 s⁻¹; kon [11]: 10300 M⁻¹ s⁻¹; staining relative to ABX-EGF (E7.6.3) [12]: 10%
B5 | – | – | – | – | – | – | – | binds | Kd [14]: 0.05 pM
B6 | – | – | – | – | – | – | – | – | binding result [15]: no binding

From patent publication US20050059087A1 (Amgen, published 2005)
